For the assay, the target named is W590S murine ABCA1-GFP fusion (murine) (UniProt P41233). The experiment in a line: flow cytometry on cells.
UniProt P41233, sequence (P41233 whole entry W590S, the tested form may be a part): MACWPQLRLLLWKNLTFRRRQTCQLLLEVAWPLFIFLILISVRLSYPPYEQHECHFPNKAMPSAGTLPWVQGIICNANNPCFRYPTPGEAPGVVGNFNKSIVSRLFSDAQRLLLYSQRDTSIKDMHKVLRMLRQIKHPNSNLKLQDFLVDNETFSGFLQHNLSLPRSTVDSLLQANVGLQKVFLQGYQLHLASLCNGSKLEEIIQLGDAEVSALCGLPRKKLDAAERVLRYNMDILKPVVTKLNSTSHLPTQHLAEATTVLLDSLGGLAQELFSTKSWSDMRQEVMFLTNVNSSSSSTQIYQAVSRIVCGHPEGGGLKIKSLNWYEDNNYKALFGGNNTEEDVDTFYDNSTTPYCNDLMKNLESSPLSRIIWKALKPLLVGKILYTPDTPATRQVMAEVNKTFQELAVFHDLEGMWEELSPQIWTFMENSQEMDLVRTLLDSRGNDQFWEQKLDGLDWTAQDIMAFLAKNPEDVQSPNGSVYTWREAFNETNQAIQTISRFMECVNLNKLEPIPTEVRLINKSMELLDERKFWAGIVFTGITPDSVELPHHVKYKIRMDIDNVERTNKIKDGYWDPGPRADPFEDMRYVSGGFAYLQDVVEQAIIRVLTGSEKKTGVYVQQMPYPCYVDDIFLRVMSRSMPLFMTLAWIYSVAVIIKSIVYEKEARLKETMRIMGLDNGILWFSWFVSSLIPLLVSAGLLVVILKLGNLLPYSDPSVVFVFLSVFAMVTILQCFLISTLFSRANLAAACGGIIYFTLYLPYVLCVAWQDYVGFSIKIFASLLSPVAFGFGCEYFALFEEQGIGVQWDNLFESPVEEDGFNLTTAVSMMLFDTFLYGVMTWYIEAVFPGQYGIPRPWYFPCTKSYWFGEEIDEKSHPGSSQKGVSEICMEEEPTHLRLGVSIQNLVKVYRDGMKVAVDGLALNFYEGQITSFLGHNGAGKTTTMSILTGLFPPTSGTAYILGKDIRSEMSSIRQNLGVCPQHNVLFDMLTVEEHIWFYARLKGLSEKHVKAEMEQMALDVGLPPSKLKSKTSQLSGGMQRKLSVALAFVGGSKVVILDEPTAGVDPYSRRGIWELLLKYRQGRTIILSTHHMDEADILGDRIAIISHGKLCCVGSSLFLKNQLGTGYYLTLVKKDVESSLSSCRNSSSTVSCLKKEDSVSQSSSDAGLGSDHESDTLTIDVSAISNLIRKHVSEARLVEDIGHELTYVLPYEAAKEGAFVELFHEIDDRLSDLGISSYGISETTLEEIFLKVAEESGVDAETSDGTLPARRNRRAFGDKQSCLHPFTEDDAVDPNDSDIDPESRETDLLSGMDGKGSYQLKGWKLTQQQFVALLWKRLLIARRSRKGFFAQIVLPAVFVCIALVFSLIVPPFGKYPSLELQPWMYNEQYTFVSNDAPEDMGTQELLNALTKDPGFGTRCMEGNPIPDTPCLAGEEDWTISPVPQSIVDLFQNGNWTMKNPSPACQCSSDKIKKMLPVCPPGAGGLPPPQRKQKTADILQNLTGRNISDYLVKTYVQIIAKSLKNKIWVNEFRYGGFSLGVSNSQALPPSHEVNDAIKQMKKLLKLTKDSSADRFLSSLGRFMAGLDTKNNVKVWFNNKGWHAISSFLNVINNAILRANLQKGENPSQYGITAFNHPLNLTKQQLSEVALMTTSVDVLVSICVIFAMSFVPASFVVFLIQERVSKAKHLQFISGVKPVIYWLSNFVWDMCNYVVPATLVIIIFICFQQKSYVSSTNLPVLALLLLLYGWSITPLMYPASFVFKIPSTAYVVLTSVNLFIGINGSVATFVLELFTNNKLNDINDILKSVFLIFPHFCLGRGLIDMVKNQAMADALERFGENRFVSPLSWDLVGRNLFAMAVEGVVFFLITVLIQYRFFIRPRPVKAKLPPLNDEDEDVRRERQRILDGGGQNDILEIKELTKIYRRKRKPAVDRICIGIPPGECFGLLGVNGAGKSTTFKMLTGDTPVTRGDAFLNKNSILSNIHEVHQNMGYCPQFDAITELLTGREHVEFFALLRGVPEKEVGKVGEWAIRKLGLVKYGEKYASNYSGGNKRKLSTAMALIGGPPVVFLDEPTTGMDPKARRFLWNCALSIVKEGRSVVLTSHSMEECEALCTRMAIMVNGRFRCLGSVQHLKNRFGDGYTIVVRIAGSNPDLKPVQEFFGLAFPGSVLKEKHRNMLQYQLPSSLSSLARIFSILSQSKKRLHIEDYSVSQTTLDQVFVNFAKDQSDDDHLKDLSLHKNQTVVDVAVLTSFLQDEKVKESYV

The substance “Alexa647-labeled apoAI (from UniProt P02647 25-267) (ligand)” gave a fold apoAI binding against control HEK cells of 6 fold.

For the origin of these results see PMC3701943.
